Substitutions are numbered along the chain they refer to.
B1: AM14 (antibody, V domains shown)
VH: EVQLVESGGGVVQPGRSLRLSCAASGFSFSHYAMHWVRQAPGKGLEWVAVISYDGENTYYADSVKGRFSISRDNSKNTVSLQMNSLRPEDTALYYCARDRIVDDYYYYGMDVWGQGATVTVSS
VL: DIQMTQSPSSLSASVGDRVTITCQASQDIKKYLNWYHQKPGKVPELLMHDASNLETGVPSRFSGRGSGTDFTLTISSLQPEDIGTYYCQQYDNLPPLTFGGGTKVEIKR
B2: hRSV97 (antibody, V domains shown)
VH: EVQLVESGGTLVQPGRSLRLSCAASGFNFEEYAMHWVRQVPGKGLEWVARINWNGGIIGYADSVKGRFTISRDNAKKSLYLQMNSLRTDDSALYYCGKDVFWAVAGTGGPIDSWGQGTLVTVSS
VL: DIVMTQSPSSLSASIGDRVTISCRASRDISNYLAWYQQKSGKVPKLLIYAASTLESGVPSRFSGSGSGTDFTLTISSLQPEDVATYYCQNYNSAQMCSFGQGPSLEIK
B3: hRSV12 (antibody, V domains shown)
VH: QVQLVQSGAEVKKPGTSVRVSCKTSGYNFMNYGIYWVRQAPGQGLEWVGWISAYNGQTDRAQKFQGRVTMTTDISTNTGYMDLRSLRSDDTAVYFCARGPPVIAAVSLEYWGRGTLVTVSS
VL: EVVMTQSPLSLPVTLGQPASISCKSSQSLVHSNGDTYLNWFQQRPGQSPRRLIYKVSNRDSGVPDRFSGSGSGTDFTLKISRVETEDVGVYYCMQATHWPGSFGQGTKLEIK
B4: hRSV139 (antibody, V domains shown)
VH: QVQLVQSGAEVKKPGASVKVSCKASGYVFSNYGISWVRQAPGQGLEWMGWISAYNGNTEFAQKFQGRITMTTDTSTNTAYLEVRGLRSDDTAVYYCSRQSGVSGVPEFQDWGQGTLVTVSS
VL: QAVVTQSPLSLPVTLGQPASISCRSSQSLVYSNGDTYLSWFQQRPGQSPRRLIYKVSNRDSGVPDRFSASGSGTDFTLKISRVEAEDVGVYYCMQGTHWPPPTFGQGTRLEIK
B5: hRSV61 (antibody, V domains shown)
VH: QVQLVQSGAELKKPGASVKVSCKASGYTFTNHGITWVRQAPGQGLEWMSWISGYNGNTQYAQKFQGRVTMTTDTSTRTAYMELRSLTSDDTAVYYCARDNGVVVGPPDYWGQGTLVTVSS
VL: DIQMTQSPSTLSASVGDRVTISCRASQSISSWLAWYQQKPGKPPKLLIYKASGLQTGVPSRFSGSGSGTEFTLTISSLQPDDFATYYCQYYHSLSAFGQGTKVEIK
B6: D25 (antibody, V domains shown)
VH: QVQLVQSGAEVKKPGSSVMVSCQASGGPLRNYIINWLRQAPGQGPEWMGGIIPVLGTVHYAPKFQGRVTITADESTDTAYIHLISLRSEDTAMYYCATETALVVSTTYLPHYFDNWGQGTLVTVSS
VL: DIQMTQSPSSLSAAVGDRVTITCQASQDIVNYLNWYQQKPGKAPKLLIYVASNLETGVPSRFSGSGSGTDFSLTISSLQPEDVATYYCQQYDNLPLTFGGGTKVEIKR
B7: hRSV106 (antibody, V domains shown)
VH: QITLKESGPTLVKPTQTLTLTCTFSGFSLTTRGVGVAWIRQPPGKALEWLALIYWDDDKRYRSSPKGRLTITKDNSKNQVVLIMTNMDPVDTATYYCAHAMDDSGSYYVGLSKDPHFDSWGHGTLVTVSS
VL: SYELTQPPSVSVSPGQTASITCSGDVLFNKFASWYQQKPGQSPVLVIYQDSKRPSGIPERFSGSNSGNTATLTIRGTQAMDEADYYCQARGSTAAHVIFGGGTKVTVL
B8: motavizumab (antibody, V domains shown)
VH: QVTLRESGPALVKPTQTLTLTCTFSGFSLSTAGMSVGWIRQPPGKALEWLADIWWDDKKHYNPSLKDRLTISKDTSKNQVVLKVTNMDPADTATYYCARDMIFNFYFDVWGQGTTVTVSS
VL: DIQMTQSPSTLSASVGDRVTITCSASSRVGYMHWYQQKPGKAPKLLIYDTSKLASGVPSRFSGSGSGTEFTLTISSLQPDDFATYYCFQGSGYPFTFGGGTKVEIK
B9: palivizumab (antibody, V domains shown)
VH: B8 VH with A32S, H60D, D67S, D100S, F103T, F105W, Q112A
VL: B8 VL with S24K, A25C, S26Q, S27L, R28S, V103L
B10: hRSV141 (antibody, V domains shown)
VH: QVQLVQSGAEVKKPGASVKVSCKASGYTFTNYYMHWVRQAPGQGLEWMGWINPNRGGTNYAQKFQGRVTMTLDTSISTAYIELSRLRSDDTAVYYCARDLTLGTDYWGQGTLVTVSS
VL: QAVVTQPASVFGFPGQSITISCTGTSSDVGGYNYVSWYQQRPGKAPKLMIYEVSNRPSGVSNRFSGSKSGNTASLTISGLQAEDEADYYCNSYTSSNSYVFGTGTKVTVL
B11: hRSV20 (antibody, V domains shown)
VH: QVQLVESGGGLVQPGRSLRLSCAASGFTFDDYAMHWVRQAPGRGLEWVSGISWNSGIAVYADSVKGRFTISRDNAKKSLYLQINSLRAEDTALYYCVKDNYASGSYSSYYYYYGLDLWGQGTLVTVSS
VL: EIVMTQSPATLSVSPGERATLSCRASQSIISNLAWYQQKPGQAPRLLIYGVSTRATGIPARFSGSGSDTEFTLSISSLQSEDFAVYYCQQYNNWPITFGQGTRLEIK
B12: hRSV75 (antibody, V domains shown)
VH: EVQLVESGGGLVKPGGSLRLSCAASGFTFRSYSMNWVRQAPGKGLEWVSSITSSSSYIDYADSVKGRFTISRDNAKNSLYLQMNSLRAEDTAVYYCARAYCGGDCSVDHFQHWGQGTLVTVSS
VL: QSVLTQPPSVSGAPGQRVTISCTGSSSNIGAGYDVHWYQHLPGTAPKLLIYVNSNRPSGVPDRFSASKSGTSASLAITGLQAEDEADYYCQSYDKSLSGFYVFGTGTKVTVL
B13: hRSV7 (antibody, V domains shown)
VH: EVQLVESGGGLVQPGGSLRLSCAASGFTFRNYAMSWVRQAPGKGLEWVSDISSGGDTTYYAESLKGRITISRDNSKNTLYLQMNSLRAEDAAIYFCAKHLLSPMYVNTDVFPDWYFEIWGRGTLVTVSS
VL: SYELTQPPSVSVSPGQTARITCSGDGLPKKYAYWYQQKSGQAPVLVIYDDSKRPSGIPERFSGTSSGTMATLIISGAQVEDEADYYCYSRHNSAYQRVFGAGTQLTVL
B14: hRSV90 (antibody, V domains shown)
VH: EVQLVESGGGLVQPRRSLRLSCAASGFTFDDYTIHWVRQAPGKGLEWVSGITWNSGYIGYADSVKGRFTISRDNARNSLYLQMNSLRAEDTALYYCVRDAYVSGSDYYYYGLDVWGRGTLVTVSS
VL: EIVMTSSPATLSVSPGERATLFCRASQSVISNLAWYQQKSGQAPRLLIYGASTRATGIPARFSGSGSGTEFTLTISSLQSEDFAVYFCQQYNNWPLTFGGGTQVNVQ
notes: also called mAb hRSV90

Tests used:
[1] = biological target: F protein of RSV strain Long (infectious virus) (human respiratory syncytial virus …, UniProt P12568 26-574); experiment: cell-based or functional assay
[2] = biological target: T1, RSV strain 18537 post-fusion F (human respiratory syncytial virus …, UniProt P13843 26-109; P13843 137-524); experiment: ELISA, F protein coated
T1 construct: extracellular domain; also called RSV B 18537 (post)

[3] = biological target: F protein of RSV strain A2 (infectious virus) (human respiratory syncytial virus …, UniProt P03420 26-574); experiment: cell-based or functional assay
[4] = biological target: F protein of RSV strain 18537 B (infectious virus) (human respiratory syncytial virus …, UniProt P13843 26-574); experiment: cell-based or functional assay
[5] = biological target: T2, RSV strain A2 pre-fusion F protein (SC-TM) (human respiratory syncytial virus …, UniProt P03420 26-513); experiment: ELISA, F protein coated
T2 construct: not shown: fold-on trimerization domain and polyhistidine tag

[6] = biological target: T3, RSV strain A2 post-fusion F (human respiratory syncytial virus …, UniProt P03420 26-109; P03420 137-524); experiment: ELISA, F protein coated
T3 construct: extracellular domain

[7] = biological target: F protein of RSV strain A2 (infectious virus) (human respiratory syncytial virus …, UniProt P03420 26-574); experiment: cell-based or functional assay; remark: listed apart in the source
[8] = biological target: RSV strain A2 pre-fusion F protein (SC-TM) (human respiratory syncytial virus …, UniProt P03420 26-513); experiment: ELISA, F protein coated

| Binder | Neutralization IC50, plaque-reduction assay [1] [µg/mL] | EC50 [2] [µg/mL] | Neutralization IC50, plaque-reduction assay [3] [µg/mL] | Neutralization IC50, plaque-reduction assay [4] [µg/mL] | EC50 [5] [µg/mL] | EC50 [6] [µg/mL] | Neutralization IC50, plaque-reduction assay [7] [µg/mL] | EC50 [8] [µg/mL] |
| --- | --- | --- | --- | --- | --- | --- | --- | --- |
| B1 | 0.043 | 0.198 | – | – | – | – | – | – |
| B2 | 0.106 | – | 2.23 | 0.065 | 0.053 | – | – | – |
| B3 | 0.016 | – | 0.141 | 0.443 | 0.028 | 0.285 | – | – |
| B4 | 0.07 | – | 0.621 | 0.216 | 0.04 | – | – | – |
| B5 | 0.054 | – | 0.276 | 0.09 | 0.027 | – | – | – |
| B6 | 0.009 | – | – | > 1 | – | – | – | – |
| B7 | 0.043 | – | 0.451 | 0.114 | 0.046 | – | – | – |
| B8 | 0.009 | 0.084 | – | 0.091 | – | 0.083 | 0.123 | 0.017 |
| B9 | 0.212 | 0.081 | – | 1.27 | – | 0.024 | 11 | – |
| B10 | 0.028 | – | 0.626 | 0.053 | 0.029 | – | – | – |
| B11 | 0.014 | – | 0.034 | 0.114 | – | – | – | – |
| B12 | 0.019 | – | 0.129 | 0.062 | 0.044 | – | – | – |
| B13 | 0.062 | – | 1.33 | 0.022 | – | – | – | – |
| B14 | 0.035 | – | 0.015 | 0.045 | 0.028 | – | – | – |
